By Kd is commonly meant a measure of binding affinity in units of concentration. Usually koff stands for a measure of how fast the partners let go of each other. One may read the kon as the second-order rate constant of association. As a reminder, the IC50 is the concentration that gives 50% inhibition.

Sequences and labels used below:
B1: BDG38.076 (antibody, V domains shown)
VH: QMQLVESGGGVVQPGRSLRLSCAASGFAFRTYGMHWVRQAPGKGLEWVAVIWDDGSATHYADSVKGRFTITRDNSKNTLNLQMNSLRAEDTAVYYCVRAPQWYLTAEAFDLWGQGTMVTVSS
VL: SYVLTQPPSVSVAPGETASITCGGNMIGGYLVHWYQQKPGQAPLLVIYDDVDRPARIPERFSGSNSGNTATLTISRVEAGDEADYYCQVWDHDTNHMVFGGGTKLTVL
notes: IgG1
B2: BDG38.092 (antibody, V domains shown)
VH: B1 VH with R19T, A28E, V48L, A57N, A88V
VL: SYVLTQPPSVSVAPGETATITCGGNLIGARLVHWYQQKPGQAPVLVIYDDSDRPSRIPERFSGSNIGNTATLTISDVEEGDEADYYCQVWDYYSDHMVFGGGTKLTVL
notes: IgG1
B3: BDG38.132 (antibody, V domains shown)
VH: B1 VH with A28E, A49G, A57N
VL: B2 VL with V3I, D76R, E79A, Y93S
notes: IgG1
B4: BDG38.137 (antibody, V domains shown)
VH: B1 VH with R16Q, A28E, A57N
VL: B2 VL with R56H, I66S, D76R, E79A, Y93S, S94A, H96T
notes: IgG1
B5: BDG38.126 (antibody, V domains shown)
VH: B1 VH with A28E, A49G, A57N
VL: B2 VL with V3I, E16Q, T19R, R30K, S75E, D76R, Y93S
notes: IgG1
B6: Lebrikizumab (antibody, V domains shown)
VH: QVTLRESGPALVKPTQTLTLTCTVSGFSLSAYSVNWIRQPPGKALEWLAMIWGDGKIVYNSALKSRLTISKDTSKNQVVLTMTNMDPVDTATYYCAGDGYYPYAMDNWGQGSLVTVSS
VL: DIVMTQSPDSLSVSLGERATINCRASKSVDSYGNSFMHWYQQKPGQPPKLLIYLASNLESGVPDRFSGSGSGTDFTLTISSLQAEDVAVYYCQQNNEDPRTFGGGTKVEIKR
B7: Tralokinumab (antibody, V domains shown)
VH: QVQLVQSGAEVKKPGASVKVSCKASGYTFTNYGLSWVRQAPGQGLEWMGWISANNGDTNYGQEFQGRVTMTTDTSTSTAYMELRSLRSDDTAVYYCARDSSSSWARWFFDLWGRGTLVTVSS
VL: SYVLTQPPSVSVAPGKTARITCGGNIIGSKLVHWYQQKPGQAPVLVIYDDGDRPSGIPERFSGSNSGNTATLTISRVEAGDEADYYCQVWDTGSDPVVFGGGTKLTVL
B8: Ab clone 38.040 (yeast surface display) (scFv, V domains shown)
VH: B1 VH with A28D, D53Y, A57I
VL: B7 VL with K16Q, I26L, S29T, I47V, G51S, G56R, T92H, G93N, S94E, P96E
notes: YSD clone; also called BDG38_040
B9: Ab clone 38.019 (yeast surface display) (scFv, V domains shown)
VH: B1 VH with D53Y, A57N, T105S
VL: B7 VL with K16Q, I26L, I47V, G51S, G56R, T92Y, G93S, D95N, P96H
notes: YSD clone; also called BDG38_019
B10: Ab clone 38.018 (yeast surface display) (scFv, V domains shown)
VH: B1 VH with A57N, V97A, T105S
VL: B7 VL with K16Q, I26L, I47V, G51S, G56R, T92H, G93S, P96H
notes: YSD clone; also called BDG38_018
B11: Ab clone 38.021 (yeast surface display) (scFv, V domains shown)
VH: B1 VH with R30D, D53Y, A57N, H59V, V97A, T105S
VL: B7 VL with K16Q, I26L, I47V, G51S, G56R, T92H, G93S, P96H, V97Y
notes: YSD clone; also called BDG38_021
B12: Ab clone 38.014 (yeast surface display) (scFv, V domains shown)
VH: B1 VH with D53Y, A57N, T105S
VL: B7 VL with K16Q, I26L, S29A, I47V, G51S, G56R, T92H, G93S, P96H
notes: YSD clone; also called BDG38_014
B13: Ab clone 38.026 (yeast surface display) (scFv, V domains shown)
VH: B1 VH with D53Y, T105S
VL: B2 VL with E16Q, A29S, R30K, I47V, D76R, E79A, Y92H, Y93S, M97V
notes: YSD clone; also called BDG38_026
B14: Clone C9 (yeast-displayed scFv) (scFv)
scFv: QMQLVESGGGVVQPGRSLRLSCAASGFTFRTYGMHWVRQAPGKGLEWVAVIWYDGSNKHYADSVKGRFTITRDNSKNTLNLQMNSLRAEDTAVYYCARSPQWEWVHEAFDLWGQGTMVTVSSGGGGSGGGGSGGGGSSYVLTQPPSVSVAPGQTARITCGGNLIGSKLVHWYQQKPGQAPVLVVYDDGDRPSWIPERFSGSNSGNTATLTISRVEAGDEADYYCQVWDSSSDGVVFGGGTKLTVL
B15: Clone C2 (yeast-displayed scFv) (scFv)
scFv: B14 scFv with S99A, W104L, V105T, H106A, L111I, G188S, W193L
B16: Clone C6 (yeast-displayed scFv) (scFv)
scFv: B14 scFv with S99A, E103M, W104L, H106A, G188S, W193R, G233H
B17: Clone C40 (yeast-displayed scFv) (scFv)
scFv: B14 scFv with L163N, G188S, W193R, S229T

Numbering of substitutions follows the chain as printed.

T3 sequence (Q0PW92 entry or part of it): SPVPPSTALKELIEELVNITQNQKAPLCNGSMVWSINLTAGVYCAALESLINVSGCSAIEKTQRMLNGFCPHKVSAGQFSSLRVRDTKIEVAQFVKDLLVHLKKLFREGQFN
T1 sequence (P35225 35-146 limits assumed): as the sequence (Q0PW92 entry or part of it) above, with S1G, K10R, V42M, N67S, R83H, V100L counted along it
T6 sequence (P35225 35-146 limits assumed): as the sequence (Q0PW92 entry or part of it) above, with S1G, K10R, V42M, N67S, R83H, V100L counted along it
Sequence of hIL-13-His (P35225 35-146 limits assumed): as the sequence (Q0PW92 entry or part of it) above, with S1G, K10R, V42M, N67S, R83H, V100L counted along it

One assay has as its target T1, recombinant human IL-13 (human, UniProt P35225 35-146).
T1 construct: also called rh-IL-13; hIL-13
Description: SPR. On the technique in general: SPR reads the build-up and loss of mass on a sensor chip optically.
For B1, the Kd was 35.4 pM, the koff was 0.000231 s⁻¹ and the kon came to 6.53e+06 M⁻¹ s⁻¹.

As to B2, the Kd came to 9.5 pM, the koff is 5.37e-05 s⁻¹ and the kon was 5.65e+06 M⁻¹ s⁻¹.

Another assay deals with T2, human TSLP (human, UniProt Q969D9 29-159).
T2 construct: also called hTSLP; rhTSLP
Description: SPR.
Turning to B1, the affinity, expressed as Kd, was 1.61 pM; the koff stood at 3.22e-05 s⁻¹; the kon was 2e+07 M⁻¹ s⁻¹.

The molecule B2 registered a Kd of 3.92 pM, a koff of 2.46e-05 s⁻¹ and a kon of 6.28e+06 M⁻¹ s⁻¹.

In a further assay the target is T1, recombinant human IL-13. The assay can be described thus: SPR. The source holds these as a separate data set.
For the molecule B3, the Kd was 17.8 pM, the dissociation rate constant (koff) came to 0.000184 s⁻¹ and the kon amounted to 1.03e+07 M⁻¹ s⁻¹.

B4: the dissociation constant Kd came out at 58 pM, the koff worked out at 0.000252 s⁻¹ and the kon came out at 4.34e+06 M⁻¹ s⁻¹.

In the case of B5, the Kd is 29.1 pM, the koff came out at 0.000143 s⁻¹ and the kon came to 4.92e+06 M⁻¹ s⁻¹.

Another assay addresses T2, human TSLP. The assay can be described thus: SPR. The source holds these as a separate data set.
B3 came in with a Kd of 3.41 pM, a koff of 3.55e-05 s⁻¹ and a kon of 1.04e+07 M⁻¹ s⁻¹.

Take B4: the Kd turned out to be 16.1 pM, the koff is 7.01e-05 s⁻¹ and the kon is 4.36e+06 M⁻¹ s⁻¹.

As to B5, the Kd was determined as 17.4 pM, the koff stood at 6.72e-05 s⁻¹ and the kon turned out to be 3.87e+06 M⁻¹ s⁻¹.

The next assay has as its target T3, recombinant cynomolgus monkey IL-13 (cynomolgus monkey, UniProt Q0PW92 21-132).
T3 construct: bought; also called rc-IL-13; cIL-13
The assay can be described thus: SPR.
B3: the Kd was found to be 56.3 pM, the koff amounted to 0.00201 s⁻¹ and the kon was found to be 3.58e+07 M⁻¹ s⁻¹.

B1: the Kd is 822 pM, the koff is 0.00671 s⁻¹ and the kon worked out at 8.16e+06 M⁻¹ s⁻¹.

Take B2: the Kd turned out to be 42.8 pM, the koff was found to be 0.00129 s⁻¹ and the kon stood at 3.01e+07 M⁻¹ s⁻¹.

In another assay the target is T4, cynomolgus monkey (cyno) TSLP (cynomolgus monkey, UniProt A0A7N9CAT7 29-159).
T4 construct: also called cTSLP; cynomolgus TSLP
T4 sequence (A0A7N9CAT7 entry or part of it): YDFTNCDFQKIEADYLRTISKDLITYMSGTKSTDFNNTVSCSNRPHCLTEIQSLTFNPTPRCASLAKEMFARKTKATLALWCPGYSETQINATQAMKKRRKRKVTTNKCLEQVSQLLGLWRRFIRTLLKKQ
The assay can be described thus: SPR.
B3 returned a Kd of 0.321 pM, a koff of 2.19e-06 s⁻¹ and a kon of 6.83e+06 M⁻¹ s⁻¹.

Molecule B1 came in with an equilibrium dissociation constant (Kd) of 0.00512 pM, a koff of 3.99e-08 s⁻¹ and an on-rate (kon) of 7.8e+06 M⁻¹ s⁻¹.

With B2, the Kd was 4.48 pM, the koff amounted to 1.72e-05 s⁻¹ and the kon is 3.84e+06 M⁻¹ s⁻¹.

The next assay has as its target hIL-13-His (human, UniProt P35225 35-146, limits assumed). Description: cell-based or functional assay.
B6: the “IC50, CD23 expression on monocytes (hPBMC, 0.7 nM IL-13)” value came out at 380 pM.

Regarding B7, the “IC50, CD23 expression on monocytes (hPBMC, 0.7 nM IL-13)” value amounted to 910 pM.

A further assay addresses T1, recombinant human IL-13. The assay can be described thus: cell-based or functional assay.
For the molecule B3, the “IC50 CD23” value amounted to 430 pM.

For the molecule B1, the “IC50 CD23” value turned out to be 308 pM.

For the molecule B4, the “IC50 CD23” value amounted to 373 pM.

In the case of B2, the “IC50 CD23” value amounted to 67.5 pM.

As to B5, the “IC50 CD23” value was found to be 86.8 pM.

Another assay addresses T2, human TSLP. Description: cell-based or functional assay.
With B3, the “IC50 TARC” value is 22400 pM.

Regarding B1, the “IC50 TARC” value came to 3210 pM.

Take B4: the “IC50 TARC” value stood at 823 pM.

Take B2: the “IC50 TARC” value worked out at 5880 pM.

B5: the “IC50 TARC” value was determined as 2580 pM.

For another assay, the target named is T5, hTSLP-His (human, UniProt Q969D9 29-159, limits assumed). Description: cell-based or functional assay.
As to B3, the “IC50 [pM], STAT5 phosphorylation inhibition in MUTZ5 cells” value came to 0.386 pM.

B1: the “IC50 [pM], STAT5 phosphorylation inhibition in MUTZ5 cells” value was 30.1 pM.

In the case of B4, the “IC50 [pM], STAT5 phosphorylation inhibition in MUTZ5 cells” value worked out at 1.85 pM.

For B2, the “IC50 [pM], STAT5 phosphorylation inhibition in MUTZ5 cells” value was 33 pM.

With B5, the “IC50 [pM], STAT5 phosphorylation inhibition in MUTZ5 cells” value is 0.0421 pM.

For another assay, the target named is T1, recombinant human IL-13. Description: cell-based or functional assay. This is another data set of the same source.
Take B3: the “HEK-IL-13 [nM] (IC50, STAT6 reporter)” value was 0.0899 nM.

For the molecule B1, the “HEK-IL-13 [nM] (IC50, STAT6 reporter)” value was found to be 0.0494 nM.

Take B4: the “HEK-IL-13 [nM] (IC50, STAT6 reporter)” value stood at 0.195 nM.

Turning to B2, the “HEK-IL-13 [nM] (IC50, STAT6 reporter)” value was found to be 0.12 nM.

On to B5, for which the “HEK-IL-13 [nM] (IC50, STAT6 reporter)” value came to 0.079 nM.

Another assay has as its target T2, human TSLP. The assay can be described thus: yeast surface display, affinity maturation library.
B8: the binding result is reported as “binds”.

Take B9: the binding result is given as “binds”.

As for B10, the binding result is recorded as “binds”.

B11: the binding result is listed as “binds”.

For the molecule B12, the binding result is “binds”.

For the molecule B13, the binding result is given as “binds”.

Another assay concerns the target T6, recombinant human IL-13 (rh-IL-13)-Fc (human, UniProt P35225 35-146, limits assumed).
T6 construct: bought; not shown: human Fc
The assay can be described thus: yeast surface display scFv, flow cytometry, 10 nM rh-IL-13-Fc. For orientation: Flow cytometry measures light scatter and fluorescence of single cells or particles in a stream.
Consider B14, for which the “relative affinity (normalized MFI, % of positive control)” value is above 20%.

Regarding B15, the “relative affinity (normalized MFI, % of positive control)” value was above 20%.

With B16, the “relative affinity (normalized MFI, % of positive control)” value is above 20%.

Take B17: the “relative affinity (normalized MFI, % of positive control)” value is above 20%.

The target of another assay is T5, hTSLP-His. The assay can be described thus: competition ELISA, 7 nM TSLP-His pre-incubated with antibody; competitor Tezepelumab coated. In general terms: ELISA stands for enzyme-linked immunosorbent assay.
B3 registered an IC50 of 9200 pM.

Molecule B1 had a 50% inhibitory concentration (IC50) of 5380 pM.

Take B4: the IC50 was found to be 10900 pM.

With B2, the IC50 is 7380 pM.

For B5, the IC50 is 5950 pM.

In the next assay the target is T7, recombinant human TSLP (hTSLP)-Fc (human, UniProt Q969D9 29-159, limits assumed).
T7 construct: not shown: Fc
Description: yeast surface display, flow cytometry, 10 nM hTSLP-Fc; MFI normalized to expression and to the positive control.
For B14, the binding result is recorded as “binds”.

Take B15: the binding result is “binds”.

With B16, the binding result is on record as “binds”.

For B17, the binding result is “binds”.

For the origin of these results see patent publication US20240059769A1 (BIOLOJIC DESIGN, published 2024).
